According to patent publication US20040248232:

Key:
[1] = test system: Z★Val-Lys-Met-MCA substrate
[2] = test system: APP substrate Ser-Glu-Val-Lys-Met-Asp-Ala-Glu-Phe

Sequence of Peak I β-secretase endoprotease activity from bovine chromaffin vesicles, identified as bovine cathepsin L (27 kDa cysteine protease band) (chain, as listed by the source): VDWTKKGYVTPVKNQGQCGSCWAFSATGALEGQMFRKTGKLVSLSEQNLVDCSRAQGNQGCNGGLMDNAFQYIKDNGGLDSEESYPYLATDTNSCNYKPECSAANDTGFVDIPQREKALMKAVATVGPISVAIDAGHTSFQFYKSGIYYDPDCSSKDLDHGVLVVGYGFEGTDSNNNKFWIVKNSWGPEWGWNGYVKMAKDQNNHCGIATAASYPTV

Substance	cleavage of the Z★Val-Lys-Met-MCA substrate, products analyzed by EMS [1]	cleavage of the APP substrate, products analyzed by EMS [2]	fluorescent MCA released by cleavage of the substrate [1]
Peak I β-secretase endoprotease activity from bovine chromaffin vesicles, identified as bovine cathepsin L (27 kDa cysteine protease band)	the Peak I activity cleaved the Lys-Met bond in the Z★Val-Lys-Met-MCA substrate	the majority of Peak I activity cleaved the Lys-Met bond	–
Peak II-A β-secretase endoprotease activity from bovine chromaffin vesicles, identified as bovine cathepsin B (31 kDa cysteine protease band)	–	the majority of the Peaks II-A and II-B activities cleaved the Met-Asp bond	the majority of the endoprotease activity in Peak II-A and Peak II-B cleaved the β-secretase scissile bond
Peak II-B β-secretase endoprotease activity from bovine chromaffin vesicles, identified as bovine cathepsin B (31 kDa cysteine protease band)	–	the majority of the Peaks II-A and II-B activities cleaved the Met-Asp bond	the majority of the endoprotease activity in Peak II-A and Peak II-B cleaved the β-secretase scissile bond
